Laboratory results as given in patent EP4534554A1 (Corregene Biotechnology Co., Ltd., dated 2025).
Numbering of substitutions follows the chain as printed.

B1: ht27M1013 (TCR, V domains shown)
Valpha: GEDVEQSLFLSVREGDSSVINCTYTDSSSTYLYWYKQEPGAGLQLLTYIFSNMDMKQDQRLTVLLNKKDKHLSLRIADTQTGDSAIYFCAGSGGGTDKLIFGTGTRLQVFP
Vbeta: GAVVSQHPSWVICKSGTSVKIECRSLDFQATTMFWYRQFPKQSLMLMATSNEGSKATYEQGVEKDKFLINHASLTLSTLTVTSAHPEDSSFYICSAREPGSGPFEQYFGPGTRLTVT
B2: ht27M1381 (TCR, V domains shown)
Valpha: B1 Valpha with T25V, S27P, S28Y
Vbeta: B1 Vbeta with S101Q, F104Y
B3: ht27M1002 (TCR, V domains shown)
Valpha: B1 Valpha
Vbeta: B1 Vbeta with S101G, F104Y
B4: ht27M1170 (TCR, V domains shown)
Valpha: B1 Valpha
Vbeta: B1 Vbeta with S95H, S101Q, F104Y
B5: ht27M1363 (TCR, V domains shown)
Valpha: B1 Valpha with S51N, N52T, M53Q
Vbeta: B1 Vbeta with S101Q, F104Y
B6: ht27M1128 (TCR, V domains shown)
Valpha: B1 Valpha
Vbeta: B1 Vbeta with S95L, S101Q, F104Y
B7: ht27M1369 (TCR, V domains shown)
Valpha: B1 Valpha with S51A, N52F, M53E, D54S
Vbeta: B1 Vbeta with S101Q, F104Y
B8: ht27M1457 (TCR, V domains shown)
Valpha: B1 Valpha
Vbeta: B1 Vbeta with S50T, N51D, E52Y, S101Q, F104Y
B9: ht27M1285 (TCR, V domains shown)
Valpha: B1 Valpha with N52F
Vbeta: B1 Vbeta with S101Q, F104Y
B10: ht27M1401 (TCR, V domains shown)
Valpha: B1 Valpha
Vbeta: B1 Vbeta with S50T, N51Q, E52P, G53L, S101Q, F104Y
B11: ht27M1243 (TCR, V domains shown)
Valpha: B1 Valpha with S29L
Vbeta: B1 Vbeta with S101Q, F104Y
B12: ht27M1436 (TCR, V domains shown)
Valpha: B1 Valpha with I49T, S51W, N52F
Vbeta: B1 Vbeta with S101Q, F104Y
B13: ht27M1387 (TCR, V domains shown)
Valpha: B1 Valpha
Vbeta: B1 Vbeta with Q29P, A30I, T31E, T32R, S101Q, F104Y
B14: ht27M1245 (TCR, V domains shown)
Valpha: B1 Valpha with S29Q
Vbeta: B1 Vbeta with S101Q, F104Y
B15: ht27M1019 (TCR, V domains shown)
Valpha: B1 Valpha
Vbeta: B1 Vbeta with N51D, E52Y, G53Q, S54T, K55C, A56V
B16: ht27M1290 (TCR, V domains shown)
Valpha: B1 Valpha
Vbeta: GAVVSQHPSWVICKSGTSVKIECRSLDFQATTMFWYRQFPKQSLMLMATSNEGSKATYEQGVEKDKFLINHASLTLSTLTVTSAHPEDSSFYICSARVNDGTYEQYFGPGTRLTVT
B17: ht27M1001 (TCR, V domains shown)
Valpha: B1 Valpha
Vbeta: B1 Vbeta with N51D, E52Y, G53Q, S54T, K55C, A56V, S101Q, F104Y
B18: ht27M1240 (TCR, V domains shown)
Valpha: B1 Valpha with S29M
Vbeta: B1 Vbeta with S101Q, F104Y
B19: ht27M1414 (TCR, V domains shown)
Valpha: B1 Valpha with I49T, F50W, S51P, N52H
Vbeta: B1 Vbeta with S101Q, F104Y
B20: ht27M1003 (TCR, V domains shown)
Valpha: B1 Valpha
Vbeta: B1 Vbeta with F104Y
B21: ht27M1557 (TCR, V domains shown)
Valpha: B1 Valpha
Vbeta: B1 Vbeta with S101Q, G102E, P103H, F104L, E105I
B22: ht27M1166 (TCR, V domains shown)
Valpha: B1 Valpha
Vbeta: B1 Vbeta with S95Q, S101Q, F104Y
B23: ht27M1360 (TCR, V domains shown)
Valpha: B1 Valpha with S51G, N52F, M53D, D54T
Vbeta: B1 Vbeta with S101Q, F104Y
B24: ht27M1226 (TCR, V domains shown)
Valpha: B1 Valpha with S28L
Vbeta: B1 Vbeta with S101Q, F104Y
B25: ht27M1374 (TCR, V domains shown)
Valpha: B1 Valpha with S28T, S29D, T30I, Y31L
Vbeta: B1 Vbeta with S101Q, F104Y
B26: ht27M1418 (TCR, V domains shown)
Valpha: B1 Valpha with I49G, F50T, S51W, N52L
Vbeta: B1 Vbeta with S101Q, F104Y
B27: ht27M1018 (TCR, V domains shown)
Valpha: B1 Valpha
Vbeta: B1 Vbeta with N51D, E52Y, G53Q, S54T, K55C, A56V, S101G
B28: ht27M1365 (TCR, V domains shown)
Valpha: B1 Valpha with N52F, M53T, D54Y
Vbeta: B1 Vbeta with S101Q, F104Y
B29: ht27M1378 (TCR, V domains shown)
Valpha: B1 Valpha with T25A, S27Y, S28L
Vbeta: B1 Vbeta with S101Q, F104Y
B30: ht27M1398 (TCR, V domains shown)
Valpha: B1 Valpha
Vbeta: B1 Vbeta with S50T, E52L, G53P, S101Q, F104Y
B31: ht27M1362 (TCR, V domains shown)
Valpha: B1 Valpha with S51I, N52F, M53Q, D54Y
Vbeta: B1 Vbeta with S101Q, F104Y
B32: A1A2-M01-619 (TCR, V domains shown)
Valpha: B1 Valpha with S29M, N52F
Vbeta: B1 Vbeta with Q29E, S50T, N51D, E52Y, S101Q, F104Y

The binders below were run against MAGE-A1 target antigen peptide … presented by HLA-A*02:01 on cells (human) (assay: cell-based or functional assay).
Parameters: EC50 Enhancement Factor: unit not given beside the values

In order of falling EC50 Enhancement Factor:
1. B26  1650
2. B21  1120
3. B1  841
4. B15  751
5. B19  739
6. B16  711
7. B6  422
8. B31  419
9. B17  388
10. B8  352
11. B30  316
12. B9  281
13. B23  277
14. B27  262
15. B5  261
16. B29  225
17. B7  218
18. B10  184
19. B28  165
20. B25  153
21. B18  151
22. B2  131
23. B13  131
24. B12  82.8
25. B11  56
26. B22  47
27. B4  39
28. B14  30
29. B24  28
30. B20  14
31. B3  12

In order of rising EC50 Value (M), JKR9 reporter activation by peptide-loaded T2 cells:
1. B26  1.01e-08 M
2. B21  1.49e-08 M
3. B1  1.98e-08 M
4. B15  2.21e-08 M
5. B19  2.25e-08 M
6. B16  3.24e-08 M
7. B6  3.95e-08 M
8. B31  3.99e-08 M
9. B17  4.28e-08 M
10. B8  4.73e-08 M
11. B30  5.28e-08 M
12. B9  5.93e-08 M
13. B23  6.04e-08 M
14. B27  6.36e-08 M
15. B5  6.4e-08 M
16. B29  7.4e-08 M
17. B7  7.66e-08 M
18. B10  9.05e-08 M
19. B28  1.01e-07 M
20. B25  1.09e-07 M
21. B18  1.1e-07 M
22. B2  1.28e-07 M
23. B13  1.28e-07 M
24. B12  2.02e-07 M
25. B11  2.98e-07 M
26. B22  3.55e-07 M
27. B4  4.25e-07 M
28. B14  5.54e-07 M
29. B24  5.88e-07 M
30. B20  1.17e-06 M
31. B3  1.36e-06 M

Molecular target: MAGE-A1 target antigen peptide … presented by HLA-A*02:01 on cells (human)
Assay: cell-based or functional assay
Remark: another data set of the same source

For B32, the EC50 Value (M), JKR9 reporter activation by peptide-loaded T2 cells was 2.74e-08 M.

Molecular target: T1, MAGE-A1 peptide on HLA-A*02:01 (human)
T1 peptide: KVLEYVIKV
Assay: JKR9 reporter + peptide-loaded T2, 16 h; full-length, on cells

In order of rising EC50 of peptide:
1. B26  10.1 nM
2. B21  14.9 nM
3. B1  19.8 nM
4. B15  22.1 nM
5. B19  22.5 nM
6. B16  32.4 nM
7. B6  39.5 nM
8. B31  39.9 nM
9. B17  42.8 nM
10. B8  47.3 nM
11. B30  52.8 nM
12. B9  59.3 nM
13. B23  60.4 nM
14. B27  63.6 nM
15. B5  64 nM
16. B29  74 nM
17. B7  76.6 nM
18. B10  90.5 nM
19. B28  101 nM
20. B25  109 nM
21. B18  110 nM
22. B2  128 nM
23. B13  128 nM
24. B12  202 nM
25. B11  298 nM
26. B22  355 nM
27. B4  425 nM
28. B14  554 nM
29. B24  588 nM
30. B20  1170 nM
31. B3  1360 nM

Molecular target: T1, MAGE-A1 peptide on HLA-A*02:01
Assay: as above
Remark: another data set of the same source

In the case of B32, the EC50 of peptide is reported as 27.4 nM.
